For this test, the target named is CD19 on tumor target cells (UniProt P15391). Briefly: cell-based or functional assay.
Sequence of UniProt P15391 (P15391 20-556 limits assumed): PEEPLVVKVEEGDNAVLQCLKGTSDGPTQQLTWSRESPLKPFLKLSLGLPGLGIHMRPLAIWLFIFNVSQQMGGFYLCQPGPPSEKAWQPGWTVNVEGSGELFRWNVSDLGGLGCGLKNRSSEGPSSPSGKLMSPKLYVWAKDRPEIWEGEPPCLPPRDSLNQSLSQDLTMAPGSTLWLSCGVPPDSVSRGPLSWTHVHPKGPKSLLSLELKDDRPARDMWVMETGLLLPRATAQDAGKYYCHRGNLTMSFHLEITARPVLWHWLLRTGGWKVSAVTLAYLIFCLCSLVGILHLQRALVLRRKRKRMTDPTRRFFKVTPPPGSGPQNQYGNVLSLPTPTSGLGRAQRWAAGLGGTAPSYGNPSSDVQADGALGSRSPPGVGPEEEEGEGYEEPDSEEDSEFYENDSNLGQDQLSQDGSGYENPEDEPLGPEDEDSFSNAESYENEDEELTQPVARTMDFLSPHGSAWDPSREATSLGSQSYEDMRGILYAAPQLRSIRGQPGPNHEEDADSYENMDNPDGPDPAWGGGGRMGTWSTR

The substance “EZ CAR CD19RCD28mζ CAR (CD19-specific CAR activated through chimeric CD28/CD3-zeta, made with the EZ CAR platform), on T cells” registered a percentage of specific cell lysis (4-hour Chromium Release Assay) of 52%.

For the substance “Clinical-grade CD19RCD28mζ CAR (CoOpCD19RCD28ζ), on T cells”, the percentage of specific cell lysis (4-hour Chromium Release Assay) is 49%.

The values are drawn from patent publication US20170183407A1.
